Source: patent US20250257126A1 (CAMBRIDGE ENTERPRISE, published 2025)

T1: RAD-displayed Fragment 1A of human LGR5 (human)
T1 construct: also called Frag1A
T1 sequence (O75473 22-37, looked up): GSSPRSGVLLRGCPTH

T2: human LGR6 transgene (human, UniProt Q9HBX8 25-967)
T2 construct: whole, on cells; Overexpressed in HEK293T cells with N-terminal HA tag, V2 receptor tail and eGFP; also tested as lysate; also called hLGR6; LGR6-eGFP
T2 sequence (looked up): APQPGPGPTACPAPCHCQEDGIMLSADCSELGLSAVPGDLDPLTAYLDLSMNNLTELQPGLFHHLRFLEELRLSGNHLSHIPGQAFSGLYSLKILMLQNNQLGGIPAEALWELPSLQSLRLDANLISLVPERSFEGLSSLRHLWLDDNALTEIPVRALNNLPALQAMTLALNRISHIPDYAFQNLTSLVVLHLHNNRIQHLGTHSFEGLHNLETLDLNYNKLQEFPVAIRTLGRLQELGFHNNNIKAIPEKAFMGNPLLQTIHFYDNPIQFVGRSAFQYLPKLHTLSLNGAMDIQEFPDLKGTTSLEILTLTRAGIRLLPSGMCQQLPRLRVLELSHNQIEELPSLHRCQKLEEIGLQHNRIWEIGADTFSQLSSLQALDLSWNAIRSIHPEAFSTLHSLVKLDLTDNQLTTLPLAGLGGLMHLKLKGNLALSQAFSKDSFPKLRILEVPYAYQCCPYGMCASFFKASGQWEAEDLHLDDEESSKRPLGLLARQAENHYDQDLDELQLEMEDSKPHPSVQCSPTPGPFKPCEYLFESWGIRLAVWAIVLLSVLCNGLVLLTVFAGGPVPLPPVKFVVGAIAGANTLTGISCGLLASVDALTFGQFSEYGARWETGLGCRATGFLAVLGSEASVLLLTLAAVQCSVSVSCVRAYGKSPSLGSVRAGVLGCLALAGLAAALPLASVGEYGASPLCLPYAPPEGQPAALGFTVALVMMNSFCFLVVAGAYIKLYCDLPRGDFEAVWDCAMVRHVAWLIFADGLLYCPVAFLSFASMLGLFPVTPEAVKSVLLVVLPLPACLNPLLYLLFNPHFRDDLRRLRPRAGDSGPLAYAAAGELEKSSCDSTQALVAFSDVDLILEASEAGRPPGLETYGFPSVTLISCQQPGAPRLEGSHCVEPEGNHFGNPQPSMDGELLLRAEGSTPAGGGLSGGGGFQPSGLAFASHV

T3: murine LGR6 transgene (mouse, UniProt Q3UVD5 23-967)
T3 construct: whole, on cells; also called mLGR6
T3 sequence (looked up): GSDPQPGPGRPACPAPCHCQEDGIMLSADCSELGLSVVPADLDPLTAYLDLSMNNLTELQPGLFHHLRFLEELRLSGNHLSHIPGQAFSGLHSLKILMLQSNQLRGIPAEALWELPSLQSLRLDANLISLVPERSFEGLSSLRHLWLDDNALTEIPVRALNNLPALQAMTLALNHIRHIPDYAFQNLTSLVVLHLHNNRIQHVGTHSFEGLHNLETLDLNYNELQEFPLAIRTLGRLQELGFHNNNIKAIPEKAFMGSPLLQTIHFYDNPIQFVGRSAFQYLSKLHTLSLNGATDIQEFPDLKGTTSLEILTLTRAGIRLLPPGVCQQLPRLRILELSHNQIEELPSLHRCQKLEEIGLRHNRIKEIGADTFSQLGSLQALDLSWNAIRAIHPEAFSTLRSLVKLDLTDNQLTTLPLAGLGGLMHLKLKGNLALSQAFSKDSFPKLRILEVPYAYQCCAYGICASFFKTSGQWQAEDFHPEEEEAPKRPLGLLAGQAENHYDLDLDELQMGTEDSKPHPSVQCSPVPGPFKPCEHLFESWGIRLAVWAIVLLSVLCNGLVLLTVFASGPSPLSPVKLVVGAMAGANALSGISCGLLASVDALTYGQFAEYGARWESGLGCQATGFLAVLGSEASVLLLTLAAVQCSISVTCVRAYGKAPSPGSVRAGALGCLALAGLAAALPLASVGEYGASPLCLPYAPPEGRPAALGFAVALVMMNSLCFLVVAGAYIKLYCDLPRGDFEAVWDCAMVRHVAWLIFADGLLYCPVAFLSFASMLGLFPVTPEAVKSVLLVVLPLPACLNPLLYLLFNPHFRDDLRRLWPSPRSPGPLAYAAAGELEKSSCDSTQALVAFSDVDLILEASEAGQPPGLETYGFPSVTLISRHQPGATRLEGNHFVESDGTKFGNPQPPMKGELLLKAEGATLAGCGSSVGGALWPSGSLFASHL


Key:
human LGR4 transgene [1] = target: T4, human LGR4 transgene (human, UniProt Q9BXB1 25-951); assay: immunofluorescence of HEK293T cells expressing LGR-eGFP transgenes with α-LGR5v4
T4 construct: whole, on cells; Overexpressed in HEK293T cells with N-terminal HA tag, V2 receptor tail and eGFP; also tested as lysate; also called hLGR4; LGR4-eGFP
Source text: (§1) B. Indirect immune fluorescence analysis of human and murine LGR family expressing HEK293T cells using the a-LGR5v4 antibody (in red), the Alexa488-coupled Phalloidin F-actin probe alongside eGFP fluorescence imaging. In the bottom row of images, LGR5-expressing HEK293T cells were stained with a-LGR5v6. C. H&E staining of tissue sections from a-LGR5v6-ADC (top row) and a-LGR5v4-ADC (bottom row) treated mice.

murine LGR4 transgene [2] = target: T5, murine LGR4 transgene (mouse, UniProt A2ARI4 25-951); assay: as above
T5 construct: whole, on cells; Overexpressed in HEK293T cells with N-terminal HA tag, V2 receptor tail and eGFP; also tested as lysate; also called mLGR4
Source text: as §1

[3] = target: T1, RAD-displayed Fragment 1A of human LGR5; assay: bio-layer interferometry (Octet), captured RAD-displayed fragment, 10 µM Fragment 1 peptide included
human LGR4 transgene [4] = target: T4, human LGR4 transgene; assay: western blot of lysates of HEK293T cells expressing the LGR transgenes
murine LGR4 transgene [5] = target: T5, murine LGR4 transgene; assay: as above
human LGR6 transgene = target: T2, human LGR6 transgene; assay: as above
murine LGR6 transgene = target: T3, murine LGR6 transgene; assay: as above

binding result (human LGR4 transgene [1]) | binding result (murine LGR4 transgene [2]) | Kd [3] | binding result (human LGR4 transgene [4]) | binding result (murine LGR4 transgene [5]) | binding result (human LGR6 transgene) | binding result (murine LGR6 transgene) | Binder
– | – | 1 nM | no binding | no binding | no binding | no binding | α-LGR5 clone 3 (antibody, mouse IgG1, kappa, V domains shown, Murine monoclonal antibody from hybridoma; also called hybridoma clone 3; antibody 3) VH: QVQLQQPGAELVKPGASVKLSCKASGYTFTSYWMQWVKQRPGQGLEWIGEIDPSDSYSNYNQKFKGKATLTVDTSSSTAYMQLSSLTSEDSAVYYCARSLSGYVDYWGQGTTLTVSS VL: DIQMTQTTSSLSASLGDRVTISCRASQDISNRLNWYQQKPDGTVKLLISYRSRLQSGVPSRFSGSGSGTDYSLTISNLEEEDIATYFCQQGNTLPPTFGGGTKLEVRR
– | – | 1.4 nM | no binding | no binding | no binding | no binding | α-LGR5 clone 4 (antibody, mouse IgG2b, kappa, V domains shown, Murine monoclonal antibody from hybridoma; also called hybridoma clone 4; antibody 4) VH: QVQLQQPGAELVKPGASVKLSCKASGYTFTDYWMQWVKQRPGQGLEWIGEIDPSDSYTNYNQKFQGKATLTVDTSSSTAYIQLSSLTSDDSAVYYCARSLSGSVDYWGQGTTLTVSS VL: DIQMTQTTSSLSASLGDRVTISCRASQDISNRLNWYQQKPDGTVKLLISYRSRLQSGVPSRFSGSGSGTDYSLTITNLEQEDIATYFCQQGNTLPPTFGGGTKLEVRR

Further lines, the binder ahead of its results:

Binder | binding result (human LGR4 transgene [1]) | binding result (murine LGR4 transgene [2]) | Kd [3] | binding result (human LGR4 transgene [4]) | binding result (murine LGR4 transgene [5]) | binding result (human LGR6 transgene) | binding result (murine LGR6 transgene)
α-LGR5 variant 4 (antibody, human IgG1, kappa, V domains shown, Humanized antibody; also called α-LGR5v4; clone 2.4) VH: QVQLVQSGAEVKKPGASVKVSCKASGYTFTNYWMQWVRQAPGQGLEWIGEIDPSDSYTNYNQKFQGRVTLTVDTSTSTAYMELSSLRSEDTAVYYCARSLSGYVDYWGQGTTVTVSS VL: EIVMTQSPATLSLSPGERATLSCRASQDISNRLNWYQQKPGQAVRLLISYRSRRHTGIPARFSGSGSGTDYTLTISSLEPEDFAVYYCQQGNSLPPTFGGGTKLEIKR | no binding | no binding | – | – | – | – | –
α-LGR5 clone 1 (antibody, mouse IgG1, kappa, V domains shown, Murine monoclonal antibody from hybridoma; also called hybridoma clone 1; antibody 1) VH: QVQLQQPGAELVKPGASVKLSCKASGYTFTSYWMQWVKQRPGQGLEWIGEIDPSDYYTNYNQKFKGKATLTVDTSSSTAYMQLSSLTSEDSAVYYCARSLSGYVDYWGQGTTLTVSS VL: DIQMTQSTSSLSASLGDRVTINCRASQDIRNRLNWYQQKPDGTVKLLISYRSRLQSGVPSRFSGSGSGTEYSLTISNLEQEDIATYFCQQGNTLPPTFGGGTKLEVRR | – | – | 0.76 nM | no binding | no binding | no binding | no binding
hybridoma clone 12 (antibody, V domains shown, Murine antibody; also called antibody 12) VH: EVQLQQSGPELVKPGASVKISCKASGYTFTDYYMNWVKQSHGKSLEWIGDINPNNGGTIYNQKFKGKATLTVDKSSSTAYMELRSLTSEDSAVYYCASGYLFDYWGPGTTLTVSS VL: not shown | – | – | – | no binding | no binding | no binding | no binding
